How the values were obtained:
[1] = system: GFP:RGA; experiment: Immunoprecipitation of GFP:RGA from pRGA::GFP:RGA seedlings sprayed with GA3; format: in vivo, Arabidopsis; settings: seedlings sprayed with GA3 (10 μM), harvested at different time points
Experimental: FIGS. 7A-D. RGA and GAI are SUMOylated in vivo. a, Immunoprecipitation of GFP proteins from 35S::GFP or 35S::GFP:NPR1 (NON EXPRESSER OF PR GENES) young seedlings sprayed with 1 mM Salicylic acid (+SA) or control (−SA). Numbers indicate molecular mass (kDa), arrowhead, the GFP:NPR1 or GFP proteins. Ponceau staining of the Rubisco large subunit serves as a loading control. b, in vitro deSUMOylation of plant-derived GFP:RGA by recombinant SUMO protease subunits of SENP1 and SENP2. c, immunoprecipitation of equal amount of total proteins derived from pRGA::GFP:RGA seedlings or a transgenic line (Col-0) expressing GAI:GFP (35S::GAI:GFP). 9 days old seedlings were grown in petri dishes in the absence (−) or presence (+) of PAC (0.1 μM). […]
Total proteins were extracted by homogenizing fresh Arabidopsis seedlings in the presence of ice cold extraction buffer—150 mM NaCl, 1% Igepal CA-630, 0.5% sodium deoxycholate, 0.1% SDS, 1 mM EDTA, 50 mM Tris HCl, pH 8.0 and freshly added protease inhibitor cocktail (Roche) and 10 mM N-ethylmaleimide (NEM). The homogenates were clarified by spinning 10 min at 4° C. at 13000×g and the supernatant quantified with the Bradford assay. […] Total proteins were quantified with the Bradford reagent and an equal amount of proteins was precipitated with five volumes of cold acetone. […]

[2] = target: T1, His:proAtSUMO1 (Arabidopsis, UniProt P55852 1-100); experiment: far-western on spotted peptides SIM A and SIM B
T1 construct: Probe of the far-western assay on spotted SIM peptides (10 ug/ml); also called recombinant His:proAtSUMO1; not shown: His tag
Experimental: (§1) Peptides corresponding to the putative SIMs in GID1 were purchased from Cambridge Research Biochemicals. 1 μg of each peptide was spotted on a PVDF membrane. Membranes were washed in 100% Ethanol, equilibrated in TBST (25 mM Tris HCl, pH 8.0, 150 mM NaCl, 0.05% Tween 20) and blocked in TBST-Milk 5%. Peptides were probed overnight at 4° C. with recombinant His:proAtSUMO1 (10 μg/ml), washed and subsequently probed with SUMO1 antibodies for standard chemoluminescence-based detection.

[3] = target: T1, His:proAtSUMO1; experiment: far-western on spotted peptides
Experimental: as §1

[4] = target: T2, SUMOylated GFP:RGA (plant-derived) (Arabidopsis, UniProt P55852 1-93, SUMO1 conjugated; lysine 65 of RGA is the critical amino acid for SUMO attachment); experiment: GST pull down of plant-derived GFP:RGA with recombinant GST:GID1a, with or without 10 µM GA3
T2 construct: the preparation is a mixture of SUMOylated and non-SUMOylated forms; also called SUMOylated RGA; SUMOylated DELLA; not shown: GFP fused N-terminally to RGA in the pRGA::GFP:RGA line
Experimental: GA3 was added at a final concentration of 10 μM. Proteins were pulled-down using the μMACS GST Isolation Kit, according to the manufacturers' instruction (Miltenyi biotech). […] The eluate was dialyzed against 50 mM Tris HCl, pH 7.5, 50 mM NaCl, 1 mM DTT. Plant purified GFP:RGA proteins were split into different tubes and incubated with recombinant GST:GID1a (0.1 μg) or GST proteins in 1× reaction buffer (with freshly added protease inhibitor cocktail) in the presence or absence of 10 μM GA3. GST-bound proteins were pulled-down using the μMACS GST Isolation Kit, washed four times with 1× reaction buffer and eluted according to the manufacturers' instruction.

[5] = target: T1, His:proAtSUMO1; experiment: peptide array probed with SUMO1 (FIG. 10a)
[6] = target: T3, SUMOylated GFP:RGA (Arabidopsis thaliana, UniProt Q9SLH3); experiment: On-column deSUMOylation assay of plant-derived GFP:RGA; format: biochemical; settings: 5-10 μg recombinant protease, typically 1-2 hours at room temperature
T3 construct: expressed in transfected cells; host or cells: pRGA::GFP:RGA transgenic Arabidopsis plants (Ler background)
From the text: FIGS. 2A-G. SUMOylation is a novel DELLA modification affecting DELLA accumulation. a, Immunoprecipitation of GFP:RGA proteins. […] His:RGAK65R is not SUMOylated. […] In bold characters, the conserved lysine residues, shaded area, the non-canonical SUMOylation motif. Alignment discloses SEQ ID NOS 41, 76-77, 42, and 78-82, respectively, in order of appearance. e, SUMOylated GFP:RGA accumulation upon NaCl treatment. f, SUMOylated GFP:RGA accumulation in wild-type (OTS1 OTS2) or mutants (ots1 ots2) plants. g, accumulation of GFP:RGA at different concentrations of NaCl. Wild-type extracts (Col-0) were used as a negative control.
GFP:RGA proteins were affinity captured from total proteins extracts of pRGA::GFP:RGA transgenic plants with the μMACS GFP Isolation Kit. Magnetic beads were eluted from the columns with 50 μl of 20 mM Tris HCl, pH 7.5 and split into different tubes. Purified GFP:RGA proteins were incubated with 5-10 μg of recombinant OTS1 or OTS1C526S, or 300 ng of GST tagged human SENP1 or SENP (42) (catalytic domain) (Enzo life sciences). After incubation (typically 1-2 hours at room temperature), the beads were applied to the column, washed and bound proteins eluted with SDSPAGE loading buffer.

T1 sequence (P55852 whole entry): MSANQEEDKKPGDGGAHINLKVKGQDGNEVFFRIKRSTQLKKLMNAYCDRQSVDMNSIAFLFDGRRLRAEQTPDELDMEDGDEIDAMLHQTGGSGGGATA
T2 sequence (chain, as listed by the source limits assumed, chain 1 of 2): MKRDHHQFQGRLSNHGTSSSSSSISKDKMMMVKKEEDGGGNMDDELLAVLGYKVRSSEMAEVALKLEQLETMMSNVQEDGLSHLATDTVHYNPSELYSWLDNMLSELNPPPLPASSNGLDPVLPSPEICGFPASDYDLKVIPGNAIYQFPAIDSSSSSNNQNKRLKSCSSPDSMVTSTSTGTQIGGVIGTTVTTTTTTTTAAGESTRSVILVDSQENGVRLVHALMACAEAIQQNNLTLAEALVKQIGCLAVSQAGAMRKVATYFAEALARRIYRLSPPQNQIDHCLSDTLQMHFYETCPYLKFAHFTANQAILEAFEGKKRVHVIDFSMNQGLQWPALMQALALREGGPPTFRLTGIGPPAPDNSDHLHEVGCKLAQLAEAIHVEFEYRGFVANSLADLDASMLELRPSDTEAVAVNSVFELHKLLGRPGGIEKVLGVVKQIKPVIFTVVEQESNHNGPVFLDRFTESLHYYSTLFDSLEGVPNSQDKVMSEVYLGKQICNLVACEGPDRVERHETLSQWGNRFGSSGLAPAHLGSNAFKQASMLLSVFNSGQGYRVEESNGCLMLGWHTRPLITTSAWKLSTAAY
T2 sequence (P55852 1-93 limits assumed, chain 2 of 2): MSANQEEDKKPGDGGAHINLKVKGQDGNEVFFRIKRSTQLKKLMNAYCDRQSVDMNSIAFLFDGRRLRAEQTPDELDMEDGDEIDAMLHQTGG
T3 sequence (Q9SLH3 whole entry): as the sequence (chain, as listed by the source limits assumed, chain 1 of 2) above
T3 sequence (P55852 1-93 partner limits assumed): as the sequence (P55852 1-93 limits assumed, chain 2 of 2) above

C=C1C[C@]23C[C@@]1(O)CC[C@H]2[C@@]12C=C[C@H](O)[C@@](C)(C(=O)O1)[C@H]2[C@@H]3C(=O)O [GA, gibberellic acid]
abundance of SUMOylated and non-SUMOylated RGA after GA treatment [1]: induced a rapid disappearance of both SUMOylated and non-SUMOylated RGA forms

B1: SIM A peptide of GID1a (peptide)
peptide: LIESRTVVPLNTW
notes: Synthetic peptide (Cambridge Research Biochemicals), 1 ug spotted on PVDF
binding result [2]: no binding

VVPLNTWVLISN (Synthetic peptide, 1 ug spotted on PVDF) [SIM B peptide of GID1a]
binding result [3]: binds

B2: GST:GID1a (receptor)
chain: MAASDEVNLIESRTVVPLNTWVLISNFKVAYNILRRPDGTFNRHLAEYLDRKVTANANPVDGVFSFDVLIDRRINLLSRVYRPAYADQEQPPSILDLEKPVDGDIVPVILFFHGGSFAHSSANSAIYDTLCRRLVGLCKCVVVSVNYRRAPENPYPCAYDDGWIALNWVNSRSWLKSKKDSKVHIFLAGDSSGGNIAHNVALRAGESGIDVLGNILLNPMFGGNERTESEKSLDGKYFVTVRDRDWYWKAFLPEGEDREHPACNPFSPRGKSLEGVSFPKSLVVVAGLDLIRDWQLAYAEGLKKAGQEVKLMHLEKATVGFYLLPNNNHFHNVMDEISAFVNAEC
notes: GID1a ORF (pLCG66) recombined into pDEST15; also called recombinant GST-tagged GID1a; GST-tagged GID1a; not shown: glutathione S-transferase (GST) tag of the GATEWAY destination vector pDEST15
binding result [4]: binds

VVPLNTWVLISNF (also called AtGID1a SIM) [SIM “B” peptide of AtGID1a (peptide array of FIG. 10)]
binding result [5]: binds

B3: OTS1: purified recombinant OTS1 SUMO protease (protein)
chain: MTKRKKEVIDVDCSEKKDFVIDWSSAMDKEDEVPELEIVNTTKPTPPPPPTFFSDDQTDSPKLLTDRDLDEQLERKKAILTLGPGLPDKGEKIRLKIADLEEEKQRRVLEGSKMEVDRSSKVVSSTSSGSDVLPQGNAVSKDTSRGNADSKDTSRQGNADSKEVSRSTFSAVFSKPKTDSQSKKAFGKELEDLGCERRKHKAGRKPVTRLSNGWRLLPDVGKAEHSAKQFDSGLKESKGNKKSKEPYGKKRPMESSTYSLIDDDDDDDDDDDNDTSGHETPREWSWEKSPSQSSRRRKKSEDTVINVDEEEAQPSTVAEQAAELPEGLQEDICYPTRDDPHFVQVCLKDLECLAPREYLTSPVMNFYMRFLQQQISSSNQISADCHFFNTYFYKKLSDAVTYKGNDKDAFFVRFRRWWKGIDLFRKAYIFIPIHEDLHWSLVIVCIPDKKDESGLTILHLDSLGLHSRKSIVENVKRFLKDEWNYLNQDDYSLDLPISEKVWKNLPRRISEAVVQVPQQKNDFDCGPFVLFFIKRFIEEAPQRLKRKDLGMFDKKWFRPDEASALRIKIRNTLIELFRVSDQTE
modifications: left off: small tags and cut ends
notes: purified recombinant OTS1 SUMO protease
deSUMOylation of SUMOylated GFP:RGA [6]: dramatic reduction of the higher molecular weight, anti-SUMO1 cross-reacting bands

— patent publication US20150353950A1, “TRANSGENIC PLANTS” (Durham University, priority 2012, published 2015)
